Measured values reported in paper PMC7032593 (Nature cell biology, 2019).

Legend:
[1] = molecular target: GST-ATG12-5–16L1β complex (human, UniProt O94817 1-140; Q9H1Y0 1-275; Q676U5 1-607); experiment: pull-down
[2] = molecular target: ATG16L1β (full-length human ATG16L1, β isoform) (human, UniProt Q676U5 1-607); experiment: tandem affinity co-purification
Chain of ATG16L1β (full-length human ATG16L1, β isoform) (Q676U5 whole entry, canonical isoform): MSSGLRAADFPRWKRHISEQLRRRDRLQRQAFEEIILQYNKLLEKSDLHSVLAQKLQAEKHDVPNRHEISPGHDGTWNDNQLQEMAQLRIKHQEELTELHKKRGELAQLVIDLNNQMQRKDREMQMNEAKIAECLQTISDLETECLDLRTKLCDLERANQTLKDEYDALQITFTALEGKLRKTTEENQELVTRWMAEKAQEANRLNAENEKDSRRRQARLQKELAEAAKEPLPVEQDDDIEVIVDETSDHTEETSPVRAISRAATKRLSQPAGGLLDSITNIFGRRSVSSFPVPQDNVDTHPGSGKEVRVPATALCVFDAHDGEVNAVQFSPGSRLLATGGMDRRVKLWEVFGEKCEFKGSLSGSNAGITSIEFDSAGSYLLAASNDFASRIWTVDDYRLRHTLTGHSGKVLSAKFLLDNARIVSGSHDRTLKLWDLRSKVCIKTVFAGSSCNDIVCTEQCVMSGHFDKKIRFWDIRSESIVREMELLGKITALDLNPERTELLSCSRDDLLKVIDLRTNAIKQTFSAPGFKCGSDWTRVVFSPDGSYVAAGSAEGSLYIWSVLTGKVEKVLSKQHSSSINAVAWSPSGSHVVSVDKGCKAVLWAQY

Chain of GST-ATG12-5–16L1β complex (Q676U5 whole entry, canonical isoform, one chain of several): as the sequence (Q676U5 whole entry, canonical isoform) above

B1: ATG3 WT (enzyme)
chain: not shown
- binding result [1]: binds

B2: ATG12–ATG5 conjugate (GST-ATG12 with untagged ATG5) (complex, human)
chain 1: MAEEPQSVLQLPTSIAAGGEGLTDVSPETTTPEPPSSAAVSPGTEEPAGDTKKKIDILLKAVGDTPIMKTKKWAVERTRTIQGLIDFIKKFLKLVASEQLFIYVNQSFAPSPDQEVGTLYECFGSDGKLVLHYCKSQAWG
chain 2: MTDDKDVLRDVWFGRIPTCFTLYQDEITEREAEPYYLLLPRVSYLTLVTDKVKKHFQKVMRQEDISEIWFEYEGTPLKWHYPIGLLFDLLASSSALPWNITVHFKSFPEKDLLHCPSKDAIEAHFMSCMKEADALKHKSQVINEMQKKDHKQLWMGLQNDRFDQFWAINRKLMEYPAEENGFRYIPFRIYQTTTERPFIQKLFRPVAADGQLHTLGDLLKEVCPSAIDPEDGEKKNQVMIHGIEPMLETPLQWLSEHLSYPDNFLHISIIPQPTD
- binding result [2]: binds
